Measured values: patent US20230050972A1 (MOMENTA PHARMACEUTICALS, published 2023)
Where “and” joins values, the source holds several entries; their conditions need not be identical. Equal entries are not always repeated.

B1: 79E3E3 (antibody, V domains shown)
VH: QIQLVQSGPEVKKPGESVKISCKASGYTFTDYAMNWVKQAPGNGLKWMGWINTQTGKPTYADDFKQRFVFSLETSARTTYLQINNLNIEDTATYFCTRLGTGNTKGFAYWGQGTLVTVSS
VL: DILINQSPASLTVSAGERVTMSCKSSQSLLYSENNQDYLAWYQQKPGQFPKLLIYGASNRHTGVPDRFTGSGSGTDFTLTISSVQAEDLADYYCEQTYRYPFTFGSGTKLEIK
notes: rat hybridoma mAb
B2: A11B1_16E10 (antibody, V domains shown)
VH: QSLEESGGDLVKPGASLTLTCRVSGFSFSSSYYMCWVRQAPGKGLEWIACIGTTRGSTYYATWAKGRFTISKISSTTVTLQMTSLTDADTATYFCARDATGYRINTIGLYFNLWGPGTLVTVSS
VL: AFELTQTPSSVEAAVGGTPTIKCQASQTIYSYLSWYQQKPGQPPKLLIYEASKLASGVPSRFSGSGSGTDYTLTISDLECADAATYYCQSYHGTASTEYNTFGGGTEVVVRG
notes: recombinant rabbit IgG, full chains

Columns and labels:
[1] = target: T1, α11β1 on human myofibroblasts (MF) (human, UniProt Q9UKX5 23-1188; P05556 21-798); assay: FACS titration on human myofibroblasts
T1 construct: whole, on cells
T1 sequence (Q9UKX5 23-1188, chain 1 of 2): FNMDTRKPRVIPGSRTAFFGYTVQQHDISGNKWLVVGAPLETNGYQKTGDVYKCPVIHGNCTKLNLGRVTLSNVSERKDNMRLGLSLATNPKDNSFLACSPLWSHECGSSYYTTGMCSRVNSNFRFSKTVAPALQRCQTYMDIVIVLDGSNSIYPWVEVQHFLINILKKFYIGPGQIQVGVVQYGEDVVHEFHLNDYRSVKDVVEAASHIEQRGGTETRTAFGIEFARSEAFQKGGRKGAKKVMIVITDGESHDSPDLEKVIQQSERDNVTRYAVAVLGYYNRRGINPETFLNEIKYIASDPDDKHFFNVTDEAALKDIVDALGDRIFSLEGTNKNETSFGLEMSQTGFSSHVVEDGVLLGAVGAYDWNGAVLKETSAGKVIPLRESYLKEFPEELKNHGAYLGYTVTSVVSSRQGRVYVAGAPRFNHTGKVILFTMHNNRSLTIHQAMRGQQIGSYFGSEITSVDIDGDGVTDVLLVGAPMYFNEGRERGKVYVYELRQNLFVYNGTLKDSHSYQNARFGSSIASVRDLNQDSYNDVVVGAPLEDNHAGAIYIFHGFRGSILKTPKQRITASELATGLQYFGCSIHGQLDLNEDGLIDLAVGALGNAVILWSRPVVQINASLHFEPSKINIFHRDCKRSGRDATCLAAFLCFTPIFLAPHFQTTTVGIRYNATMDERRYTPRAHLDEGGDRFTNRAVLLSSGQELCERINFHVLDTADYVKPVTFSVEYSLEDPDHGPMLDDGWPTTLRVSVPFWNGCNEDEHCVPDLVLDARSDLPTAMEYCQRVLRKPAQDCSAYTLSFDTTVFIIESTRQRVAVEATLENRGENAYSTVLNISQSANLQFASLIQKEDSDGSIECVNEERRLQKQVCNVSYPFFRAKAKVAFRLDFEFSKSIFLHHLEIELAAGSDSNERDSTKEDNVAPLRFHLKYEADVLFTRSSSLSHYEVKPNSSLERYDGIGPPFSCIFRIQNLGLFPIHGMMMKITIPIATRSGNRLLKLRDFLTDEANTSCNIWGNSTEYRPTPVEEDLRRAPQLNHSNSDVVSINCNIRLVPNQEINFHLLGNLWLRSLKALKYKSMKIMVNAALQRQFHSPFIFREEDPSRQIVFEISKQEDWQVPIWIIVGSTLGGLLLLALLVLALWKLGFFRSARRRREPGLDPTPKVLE
T1 sequence (P05556 21-798, chain 2 of 2): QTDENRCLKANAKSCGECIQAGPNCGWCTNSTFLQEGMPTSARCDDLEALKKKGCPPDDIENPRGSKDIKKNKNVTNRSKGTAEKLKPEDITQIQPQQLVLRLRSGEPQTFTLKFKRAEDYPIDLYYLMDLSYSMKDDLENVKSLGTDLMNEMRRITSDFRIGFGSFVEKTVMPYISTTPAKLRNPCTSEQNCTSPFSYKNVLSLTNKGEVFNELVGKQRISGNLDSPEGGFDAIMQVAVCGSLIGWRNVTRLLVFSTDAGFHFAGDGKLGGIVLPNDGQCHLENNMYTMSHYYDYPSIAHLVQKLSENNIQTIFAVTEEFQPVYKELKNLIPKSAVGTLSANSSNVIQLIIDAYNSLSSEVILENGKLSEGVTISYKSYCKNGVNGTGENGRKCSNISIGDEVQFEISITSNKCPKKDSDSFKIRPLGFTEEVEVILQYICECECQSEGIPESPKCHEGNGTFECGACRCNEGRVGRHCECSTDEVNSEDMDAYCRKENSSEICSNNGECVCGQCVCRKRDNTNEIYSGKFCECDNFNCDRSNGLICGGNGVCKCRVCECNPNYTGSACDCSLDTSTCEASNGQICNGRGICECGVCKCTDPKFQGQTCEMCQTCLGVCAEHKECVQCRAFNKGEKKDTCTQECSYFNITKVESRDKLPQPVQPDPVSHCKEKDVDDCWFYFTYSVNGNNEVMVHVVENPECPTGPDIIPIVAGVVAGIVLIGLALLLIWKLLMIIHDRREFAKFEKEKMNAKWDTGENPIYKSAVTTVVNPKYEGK
Protocol: Human Pulmonary Fibroblasts (ScienCell) were cultured in complete Fibroblast Growth Medium (ScienCell) until 80% confluent in T-150 flasks. Cells were washed and harvested using Accutase. Cells were seeded into T-150 flasks at 7,500 cells/cm² in complete FGF and cultured for 72 hours. Cells were then washed and starved in serum reduced medium for 24 hours. After starvation, cells were treated with TGFβ-1 (R&D Systems) for 72 hours. Cells were harvested using Accutase and seeded in 96-well conical bottom plates. Cells were blocked with Heat Inactived Fetal Bovine Serum (Gibco) for 30 minutes at 4° C. Cells were then incubated with anti-α11 antibodies at the doses described in each figure for 30 minutes at 4° C. A human anti-α11 antibody (Creative BioLabs) was included as a positive control as well as the appropriate IgG isotype negative controls. Cells were washed twice and incubated with PE conjugated secondary antibodies specific to the IgG class of the anti-α11 antibodies being tested for 30 minutes at 4° C. Cells were washed twice and fixed in 1% PFA for 30 minutes. Cells were acquired on a FACS Verse […]. Data were analyzed by gating on single cells and determining the geometric Mean Fluorescence Intensity (gMFI) in the PE channel for each sample.

[2] = target: T2, recombinant human α11β1 (human, UniProt Q9UKX5 23-1141; P05556 21-728); assay: SPR, HIS-tagged human α11β1 captured by anti-HIS, antibody as analyte, single-cycle kinetics
T2 construct: Coated in ELISA; ELISA and SPR material treated as one molecule; also called HIS-tagged human α11β1; integrin alpha 11 beta 1
T2 sequence (Q9UKX5 23-1141 limits assumed, chain 1 of 2): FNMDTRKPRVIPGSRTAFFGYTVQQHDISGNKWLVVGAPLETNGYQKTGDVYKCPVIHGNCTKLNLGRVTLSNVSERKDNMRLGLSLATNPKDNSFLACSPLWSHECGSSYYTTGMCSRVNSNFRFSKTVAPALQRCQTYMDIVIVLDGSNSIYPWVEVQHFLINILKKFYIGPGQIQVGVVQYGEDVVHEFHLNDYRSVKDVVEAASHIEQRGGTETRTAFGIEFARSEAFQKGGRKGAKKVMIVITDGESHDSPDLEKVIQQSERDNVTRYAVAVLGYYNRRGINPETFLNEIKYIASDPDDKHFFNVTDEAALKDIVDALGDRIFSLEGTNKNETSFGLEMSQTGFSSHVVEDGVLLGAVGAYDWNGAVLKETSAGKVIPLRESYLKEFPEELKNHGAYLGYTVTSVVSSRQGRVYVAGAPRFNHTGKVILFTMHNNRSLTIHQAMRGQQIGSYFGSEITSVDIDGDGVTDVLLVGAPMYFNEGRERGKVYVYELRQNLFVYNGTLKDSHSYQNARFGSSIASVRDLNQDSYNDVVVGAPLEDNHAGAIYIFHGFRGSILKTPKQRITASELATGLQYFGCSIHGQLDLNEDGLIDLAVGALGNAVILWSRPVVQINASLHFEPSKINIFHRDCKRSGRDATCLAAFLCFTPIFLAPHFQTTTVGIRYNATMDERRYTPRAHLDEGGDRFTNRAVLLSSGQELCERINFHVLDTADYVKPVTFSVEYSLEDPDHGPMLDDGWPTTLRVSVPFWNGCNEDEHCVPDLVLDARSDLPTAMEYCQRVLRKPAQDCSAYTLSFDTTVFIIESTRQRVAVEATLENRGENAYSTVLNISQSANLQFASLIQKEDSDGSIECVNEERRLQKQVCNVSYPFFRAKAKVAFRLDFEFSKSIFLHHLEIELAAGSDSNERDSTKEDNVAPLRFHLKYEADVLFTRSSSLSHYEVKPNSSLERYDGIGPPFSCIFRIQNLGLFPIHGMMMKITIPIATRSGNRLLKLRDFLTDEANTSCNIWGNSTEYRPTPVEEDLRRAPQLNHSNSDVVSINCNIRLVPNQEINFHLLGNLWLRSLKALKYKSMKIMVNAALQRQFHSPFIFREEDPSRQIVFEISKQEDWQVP
T2 sequence (P05556 21-728 limits assumed, chain 2 of 2): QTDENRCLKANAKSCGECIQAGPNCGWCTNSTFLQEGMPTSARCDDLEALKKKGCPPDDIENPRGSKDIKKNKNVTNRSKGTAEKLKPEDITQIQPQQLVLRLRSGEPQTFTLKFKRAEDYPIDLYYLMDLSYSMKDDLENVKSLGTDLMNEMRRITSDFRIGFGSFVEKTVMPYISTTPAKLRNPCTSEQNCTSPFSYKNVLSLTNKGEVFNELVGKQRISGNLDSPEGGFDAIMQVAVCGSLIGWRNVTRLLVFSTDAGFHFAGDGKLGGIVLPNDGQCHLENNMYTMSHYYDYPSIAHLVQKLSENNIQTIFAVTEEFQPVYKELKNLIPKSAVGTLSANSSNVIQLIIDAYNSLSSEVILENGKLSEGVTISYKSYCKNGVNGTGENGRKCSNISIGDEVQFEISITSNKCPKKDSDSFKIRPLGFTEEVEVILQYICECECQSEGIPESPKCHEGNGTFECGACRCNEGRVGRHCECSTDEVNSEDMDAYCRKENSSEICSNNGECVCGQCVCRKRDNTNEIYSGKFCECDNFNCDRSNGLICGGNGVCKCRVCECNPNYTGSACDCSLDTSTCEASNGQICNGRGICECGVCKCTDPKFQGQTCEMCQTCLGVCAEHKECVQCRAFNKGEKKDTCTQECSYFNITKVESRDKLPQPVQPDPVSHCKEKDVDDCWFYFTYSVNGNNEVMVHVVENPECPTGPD
Protocol: (§1) The affinity of antibodies for human α11β1 was measured by surface plasmon resonance assay (SPR). Affinity was measured at pH 7.6 and 25° C. with a Biacore T200 instrument. Anti-HIS antibody was immobilized on the SPR sensor surface using EDC/NHS covalent attachment. HIS-tagged human α11β1 was captured on the sensor surface and a single-cycle kinetics assay was used. Increasing concentrations of test antibody were injected in series over the sensor-bound α11β1. Dissociation was monitored for 1000 seconds. A sensor surface with only anti-HIS antibody and a series of blank injections were used to double-reference subtract the data. A 1:1 Langmuir model was fit to the data to estimate the kinetic association and dissociation constants. The affinity (equilibrium dissociation constant) of the interaction was calculated by dividing the kinetic dissociation constant by the kinetic association constant. Between injection cycles α11β1 and bound antibody were removed with an injection of 10 mM glycine at pH 1.5.
The binding affinity of antibodies for the α11β1 Headpiece and α11β1 I Domain as measured by SPR is shown in FIG. 10A and FIG. 10B, respectively.

[3] = target: T3, human α11β1 expressed on the surface of CHO-K1 cells (human, UniProt Q9UKX5 23-1188); assay: cell-based or functional assay
T3 sequence (Q9UKX5 23-1188): as the sequence (Q9UKX5 23-1188, chain 1 of 2) above

[4] = target: T3, human α11β1 expressed on the surface of …; assay: FACS titration on Human CHO-α11 cells
Protocol: 200,000 cells (wild-type CHO-K1 cells or CHO-K1 cells expressing human α11) were incubated with each antibody at desired concentrations in FACS buffer for 30 min at 4° C. Then, the cells were washed with FACS buffer and incubated with secondary antibody at 1:100 dilution for 30 minutes at 4° C. Cells were then washed and fixed with 1% PFA in PBS for 20 minutes at room temperature; washed again and read on a cytometer in FACS buffer.

[5] = target: T2, recombinant human α11β1; assay: SPR (Biacore T200), HIS-tagged human α11β1 captured on anti-HIS, single-cycle kinetics, 1:1 Langmuir fit
Protocol: as §1

[6] = target: T4, recombinant mouse α11β1 (mouse, UniProt P61622 23-1141; P09055 21-728, limits assumed); assay: ELISA on recombinant mouse α11β1
T4 construct: also called murine α11β1
Protocol: 0.25 μg/mL of target antigen (recombinant human or mouse α11β1) was plated in a 96-well plate over night at 4° C. Plates were washed (PBS with 0.1% Tween-20), blocked (PBS with 2% BSA and 0.05% Tween-20) for 1 hour at room temperature and incubated with a range of antibody concentrations for 1 hour at room temperature. Subsequently, plates were washed and incubated with biotinylated anti-rabbit/mouse/human IgG in a 1:1000 dilution buffer and incubated for 1 hour at room temperature. After washing the plates, Streptavidin HRP was added at 1:200 in dilution buffer and incubated for 1 hour at room temperature. Ultra TMB ELISA substrate solution was added and the plates incubated for 5 minutes on a plate shaker. The reaction was stopped by adding stop solution to each well and plates were read at 450 nm.

[7] = target: Mouse CHO-α11 (mouse, UniProt P61622); assay: FACS titration on Mouse CHO-α11 cells
Mouse CHO-α11, sequence (P61622 23-1188): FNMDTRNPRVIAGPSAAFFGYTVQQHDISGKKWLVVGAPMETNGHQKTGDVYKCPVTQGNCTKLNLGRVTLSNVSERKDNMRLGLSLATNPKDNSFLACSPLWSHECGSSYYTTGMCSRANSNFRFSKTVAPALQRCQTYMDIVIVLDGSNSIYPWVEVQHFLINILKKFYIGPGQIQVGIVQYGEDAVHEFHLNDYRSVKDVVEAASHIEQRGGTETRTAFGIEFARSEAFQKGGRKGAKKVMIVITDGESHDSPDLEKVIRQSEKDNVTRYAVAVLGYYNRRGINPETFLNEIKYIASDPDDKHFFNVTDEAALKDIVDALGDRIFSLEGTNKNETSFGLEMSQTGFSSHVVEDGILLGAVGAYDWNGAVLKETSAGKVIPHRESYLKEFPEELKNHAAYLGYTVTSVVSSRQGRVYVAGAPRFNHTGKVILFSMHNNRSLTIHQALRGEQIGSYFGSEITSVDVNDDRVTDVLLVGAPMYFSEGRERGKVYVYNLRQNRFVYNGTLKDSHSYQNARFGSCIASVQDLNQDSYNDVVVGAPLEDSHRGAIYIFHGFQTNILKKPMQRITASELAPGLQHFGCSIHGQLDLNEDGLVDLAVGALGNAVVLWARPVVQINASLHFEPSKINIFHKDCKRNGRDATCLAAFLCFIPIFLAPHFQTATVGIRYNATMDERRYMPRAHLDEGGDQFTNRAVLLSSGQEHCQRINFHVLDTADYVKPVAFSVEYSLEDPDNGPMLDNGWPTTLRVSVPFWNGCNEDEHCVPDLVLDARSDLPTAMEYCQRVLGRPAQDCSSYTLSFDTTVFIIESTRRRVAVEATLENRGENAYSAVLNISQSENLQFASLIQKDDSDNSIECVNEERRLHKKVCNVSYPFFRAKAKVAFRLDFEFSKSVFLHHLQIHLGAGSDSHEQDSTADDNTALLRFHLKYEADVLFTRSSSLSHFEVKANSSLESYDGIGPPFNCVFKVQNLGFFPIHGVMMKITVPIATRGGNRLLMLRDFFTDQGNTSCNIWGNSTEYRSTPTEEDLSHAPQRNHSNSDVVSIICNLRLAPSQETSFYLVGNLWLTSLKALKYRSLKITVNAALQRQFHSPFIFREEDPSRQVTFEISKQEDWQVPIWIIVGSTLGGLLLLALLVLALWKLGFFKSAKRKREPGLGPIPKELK

[8] = target: T5, in-house generated I domain of α11β1 (human, UniProt Q9UKX5 159-349, limits assumed); assay: SPR, single-cycle injections of 33, 100 and 300 nM over the a11b1 I Domain
T5 construct: domain: I domain; also called human α11β1 I domain; α11β1 I Domain
T5 sequence (looked up): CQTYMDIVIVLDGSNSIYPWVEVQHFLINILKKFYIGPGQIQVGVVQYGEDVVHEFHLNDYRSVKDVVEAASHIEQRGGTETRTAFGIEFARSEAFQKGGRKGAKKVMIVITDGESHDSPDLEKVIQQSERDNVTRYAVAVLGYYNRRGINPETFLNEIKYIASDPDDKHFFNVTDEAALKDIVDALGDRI

[9] = target: T3, human α11β1 expressed on the surface of …; assay: cell-based or functional assay; remark: listed apart in the source

| Binder | EC50 [1] | Kd [2] [pM] | IC50 of blocking cell adhesion to type I collagen [3] [pM] | EC50 [4] [pM] | koff [5] [s⁻¹] | kon [5] [M⁻¹ s⁻¹] | binding result [6] | EC50 [7] [pM] | binding result [8] | IC50, inhibition of adhesion of CHO-α11 cells to rat tail type I collagen [9] [pM] |
| --- | --- | --- | --- | --- | --- | --- | --- | --- | --- | --- |
| B1 | 0.5 µg/mL and 3.35 nM | 10 | 9400 | 7300 | 0.000108 | 1.07e+07 | binds | 3500 | – | – |
| B2 | 0.051 µg/mL and 0.3 nM | 48 | – | 350 | 0.000234 | – | no binding | – | no binding (tested: 300 nM) | 390 |
